Publication doi:10.1101/2020.09.10.288878

Molecular target: taxol-stabilized microtubules polymerised from porcine brain tubulin (porcine) (UniProt P02550)
Assay: co-sedimentation

Q: How did the decrease in the pellet fraction against MBP-MTB-WT turn out when “MBP-MTB-ΔSAH (MBP-tagged Sli15 microtubule binding domain with the SAH region deleted) (domain or fragment)” was run?
A: 20%

Q: With “MBP-MTB-12Q (MBP-tagged Sli15 microtubule binding domain, twelve basic SAH residues to glutamine) (domain or fragment)” as the substance, how does the decrease in the pellet fraction against MBP-MTB-WT read?
A: 20%
